These results are taken from patent US20230136228A1 (LAMKAP BIO ALPHA, published 2023).

One assay has as its target T1, human CEACAM6 (human, UniProt P40199 35-320).
T1 construct: whole, on cells; also called CD66c
T1 sequence (looked up): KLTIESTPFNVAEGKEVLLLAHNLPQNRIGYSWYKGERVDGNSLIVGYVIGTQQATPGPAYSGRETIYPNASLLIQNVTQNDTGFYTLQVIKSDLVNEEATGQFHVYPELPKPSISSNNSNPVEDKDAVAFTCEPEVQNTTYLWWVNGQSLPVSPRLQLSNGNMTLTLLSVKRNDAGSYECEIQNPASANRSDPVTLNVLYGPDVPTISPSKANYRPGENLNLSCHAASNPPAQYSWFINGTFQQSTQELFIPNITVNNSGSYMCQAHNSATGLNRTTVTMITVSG
Description: flow cytometry, transfected PEAK cells. An excerpt:
(§1) Vectors encoding the full-length version of human CEACAM 1, 3, 4, 5, 6, 7, 8, 18, 19, 20 and […] are used to express these proteins at the surface of PEAK and/or CHO cells as described in Example 1. Similarly, vectors encoding the full-length version of cyno CEACAM 5 and 6 are also used to express these proteins at the surface of PEAK and/or CHO cells. Non-transfected PEAK and/or CHO cells are used as negative control. Cells are harvested, counted, checked for viability and resuspended at 3×10⁶ cells/ml in FACS buffer (PBS 2% BSA, 0.1% NaN₃). 100 μl of the cell suspension are distributed in V-bottom 96-well plates (3×10⁵ cells/well). The supernatant is removed by centrifugation 3 minutes at 4° C., 1300 rpm and the cells incubated for 15 minutes at 4° C. with increasing concentrations of the antibody according to the invention. The antibodies carrying the anti-CEACAM5 arms to test are diluted in FACS buffer and the concentration range is 30 pM-500 nM. Cells are washed twice with cold FACS buffer and re-incubated for further 15 minutes at 4° C. with a compatible anti-human IgG secondary antibody. Cells are washed twice with cold FACS buffer and resuspended in 300 μl FACS buffer with 1:1500-diluted TOPRO-3 (Invitrogen). Fluorescence is measured using a FACSCalibur™ (BD Biosciences) or a Cytoflex Platform (Beckman Coulter). Dose-response binding curves are fitted using GraphPad Prism8 software. In the same manner, CEACAM1, CEACAM6 and other CEACAMs can be characterized.
(§2) For the bispecific antibodies AB17L3-1/N, AB71L3-1/N, AB72L3-1/N, AB73L3-1/N the MFI measured for binding to CEACAM5 transfected cells was found between 29000 and 41000 (Table 2). In contrast MFI found by using PEAK cells transfected with CEACAM 1,3,4,6,8 were found below 1000 with the only exception of a strong signal for AB72L3-1/N on CEACAM8 transfected cells. When MFI values obtained on transfected cells expressing any given CEACAM are divided by the values obtained on WT PEAK cells, “factors to PEAK WT” can be calculated (Table 3).

Another assay concerns the target T2, human CEACAM4 (human, UniProt O75871 36-244).
T2 construct: whole, on cells
T2 sequence (looked up): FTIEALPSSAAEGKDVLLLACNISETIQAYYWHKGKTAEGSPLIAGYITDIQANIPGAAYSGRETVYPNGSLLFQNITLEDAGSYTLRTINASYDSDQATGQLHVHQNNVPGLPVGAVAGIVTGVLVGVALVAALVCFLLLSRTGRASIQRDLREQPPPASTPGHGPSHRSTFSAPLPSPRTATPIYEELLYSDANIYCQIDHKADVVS
Description: flow cytometry, transfected PEAK cells.
Source text: as §1, §2
(A flow cytometer gives signals particle by particle.)

The next assay deals with T3, human CEACAM1 (human, UniProt P13688 35-526).
T3 construct: whole, on cells
T3 sequence (looked up): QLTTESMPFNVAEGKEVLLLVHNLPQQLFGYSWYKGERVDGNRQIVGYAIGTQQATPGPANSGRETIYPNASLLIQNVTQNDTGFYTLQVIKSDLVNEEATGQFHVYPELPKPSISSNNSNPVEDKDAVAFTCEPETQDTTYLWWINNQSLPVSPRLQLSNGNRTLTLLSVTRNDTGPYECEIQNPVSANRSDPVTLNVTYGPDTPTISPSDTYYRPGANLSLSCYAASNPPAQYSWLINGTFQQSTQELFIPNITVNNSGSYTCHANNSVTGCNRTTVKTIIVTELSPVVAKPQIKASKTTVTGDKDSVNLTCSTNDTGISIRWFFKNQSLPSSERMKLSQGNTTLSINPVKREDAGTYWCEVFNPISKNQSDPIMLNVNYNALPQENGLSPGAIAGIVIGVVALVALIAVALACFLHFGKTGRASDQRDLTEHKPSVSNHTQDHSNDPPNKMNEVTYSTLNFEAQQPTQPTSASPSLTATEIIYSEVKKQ
The experiment in a line: flow cytometry, transfected PEAK cells.
Source text: as §1, §2

The next assay deals with T4, human CEACAM3 (human, UniProt P40198 35-252).
T4 construct: whole, on cells
T4 sequence (looked up): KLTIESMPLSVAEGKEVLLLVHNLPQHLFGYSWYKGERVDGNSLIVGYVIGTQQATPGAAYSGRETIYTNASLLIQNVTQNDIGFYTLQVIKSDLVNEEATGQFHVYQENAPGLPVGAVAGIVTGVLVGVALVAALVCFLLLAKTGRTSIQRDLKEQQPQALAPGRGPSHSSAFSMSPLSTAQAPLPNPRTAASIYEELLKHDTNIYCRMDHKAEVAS
The experiment in a line: flow cytometry, transfected PEAK cells.
Source text: as §1, §2

Assay [1] has as its target T5, shed soluble CEACAM5 (sCEA) (human, UniProt P06731 35-685, limits assumed).
T5 sequence (looked up): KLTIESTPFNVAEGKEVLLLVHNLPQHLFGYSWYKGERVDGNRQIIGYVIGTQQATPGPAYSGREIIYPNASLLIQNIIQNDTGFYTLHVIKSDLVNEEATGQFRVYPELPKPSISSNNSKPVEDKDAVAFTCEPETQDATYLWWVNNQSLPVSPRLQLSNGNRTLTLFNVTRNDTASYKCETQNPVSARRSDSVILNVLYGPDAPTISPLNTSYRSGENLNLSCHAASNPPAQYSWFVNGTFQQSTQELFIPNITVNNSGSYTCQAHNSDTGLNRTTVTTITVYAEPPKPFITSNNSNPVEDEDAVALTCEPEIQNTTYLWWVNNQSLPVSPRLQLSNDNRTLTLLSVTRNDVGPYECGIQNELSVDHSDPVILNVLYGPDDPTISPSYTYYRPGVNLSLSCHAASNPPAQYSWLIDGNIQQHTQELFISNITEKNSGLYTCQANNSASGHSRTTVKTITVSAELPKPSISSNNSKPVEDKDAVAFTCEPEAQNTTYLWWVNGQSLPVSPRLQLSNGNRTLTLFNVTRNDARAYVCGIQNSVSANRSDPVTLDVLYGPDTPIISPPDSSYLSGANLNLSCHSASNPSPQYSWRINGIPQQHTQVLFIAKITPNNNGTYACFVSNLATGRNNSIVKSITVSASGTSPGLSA
Description: cell-based or functional assay.

B1: AB17L3-1/N (bispecific antibody, human IgG1, kappa, lambda, L234A L235A)
heavy: EVQLVESGGGLVQPGGSLKLSCAASGFTFNTYAMNWVRQAPGKGLEWVGRIRSKYNNYATYYADSVKDRFTISRDDSKNTAYLQMNSLKTEDTAVYYCVRHGNFGNSYVSWFAYWGQGTLVTVSSASTKGPSVFPLAPSSKSTSGGTAALGCLVKDYFPEPVTVSWNSGALTSGVHTFPAVLQSSGLYSLSSVVTVPSSSLGTQTYICNVNHKPSNTKVDKRVEPKSCDKTHTCPPCPAPEAAGGPSVFLFPPKPKDTLMISRTPEVTCVVVDVSHEDPEVKFNWYVDGVEVHNAKTKPREEQYNSTYRVVSVLTVLHQDWLNGKEYKCKVSNKALAAPIEKTISKAKGQPREPQVYTLPPSREEMTKNQVSLTCLVKGFYPSDIAVEWESNGQPENNYKTTPPVLDSDGSFFLYSKLTVDKSRWQQGNVFSCSVMHEALHNHYTQKSLSLSPG
light 1: EIVLTQSPATLSLSPGERATLSCRASQSVNSNLNWYQQKPGQAPRLLIYHGSNRATGIPARFSGSGSGTDFTLTISSLEPEDFAVYYCQQFDYFKEHNTFGQGTKVEIKRTVAAPSVFIFPPSDEQLKSGTASVVCLLNNFYPREAKVQWKVDNALQSGNSQESVTEQDSKDSTYSLSSTLTLSKADYEKHKVYACEVTHQGLSSPVTKSFNRGEC
light 2: QTVVTQEPSLTVSPGGTVTLTCRSSTGAVTTSNYANWFQQKPGQAPRGLIGGTNKRAPGTPARFSGSLLGGKAALTLSGAQPEDEAEYYCALWYKQRWVFGGGTKLTVLGQPKAAPSVTLFPPSSEELQANKATLVCLISDFYPGAVTVAWKADSSPVKAGVETTTPSKQSNNKYAASSYLSLTPEQWKSHRSYSCQVTHEGSTVEKTVAPTECS
notes: Kappa-lambda body, lead optimization wave 1
For B1, in the assay with human CEACAM6, the binding result is recorded as “no binding (tested: 10 mcg/ml)”. In addition, the binding result with human CEACAM4 is reported as “no binding (tested: 10 mcg/ml)”. For the same molecule, in the assay with human CEACAM1, the binding result is “no binding (tested: 10 mcg/ml)”. Moreover, the binding result with human CEACAM3 was “no binding (tested: 10 mcg/ml)”. Further, in assay [1], the “EC50 fold change compared to no shed CEA condition, sCEA 0 µg/mL (reference)” value was found to be 1 fold; the “EC50 fold change compared to no shed CEA condition, sCEA 0.2 µg/mL” value is 3.2 fold; the “EC50 fold change compared to no shed CEA condition, sCEA 1 µg/mL” value stood at 5 fold; the “EC50 fold change compared to no shed CEA condition, sCEA 5 µg/mL” value is 11 fold.

B2: AB72L3-1/N (bispecific antibody, human IgG1, kappa, lambda, L234A L235A)
heavy: EVQLVESGGGLVQPGGSLKLSCAASGFTFNTYAMNWVRQAPGKGLEWVGRIRSKYNNYATYYADSVKDRFTISRDDSKNTAYLQMNSLKTEDTAVYYCVRHGNFGNSYVSWFAYWGQGTLVTVSSASTKGPSVFPLAPSSKSTSGGTAALGCLVKDYFPEPVTVSWNSGALTSGVHTFPAVLQSSGLYSLSSVVTVPSSSLGTQTYICNVNHKPSNTKVDKRVEPKSCDKTHTCPPCPAPEAAGGPSVFLFPPKPKDTLMISRTPEVTCVVVDVSHEDPEVKFNWYVDGVEVHNAKTKPREEQYNSTYRVVSVLTVLHQDWLNGKEYKCKVSNKALAAPIEKTISKAKGQPREPQVYTLPPSREEMTKNQVSLTCLVKGFYPSDIAVEWESNGQPENNYKTTPPVLDSDGSFFLYSKLTVDKSRWQQGNVFSCSVMHEALHNHYTQKSLSLSPG
light 1: EIVLTQSPATLSLSPGERATLSCRASQSVNSNLNWYQQKPGQAPRLLIYHSTNRPRGIPARFSGSGSGTDFTLTISSLEPEDFAVYYCQQFDYFKEYNTFGQGTKVEIKRTVAAPSVFIFPPSDEQLKSGTASVVCLLNNFYPREAKVQWKVDNALQSGNSQESVTEQDSKDSTYSLSSTLTLSKADYEKHKVYACEVTHQGLSSPVTKSFNRGEC
light 2: QTVVTQEPSLTVSPGGTVTLTCRSSTGAVTTSNYANWFQQKPGQAPRGLIGGTNKRAPGTPARFSGSLLGGKAALTLSGAQPEDEAEYYCALWYKQRWVFGGGTKLTVLGQPKAAPSVTLFPPSSEELQANKATLVCLISDFYPGAVTVAWKADSSPVKAGVETTTPSKQSNNKYAASSYLSLTPEQWKSHRSYSCQVTHEGSTVEKTVAPTECS
notes: Kappa-lambda body, lead optimization wave 2
Regarding B2, the binding result with human CEACAM6 is “no binding (tested: 10 mcg/ml)”. The binding result with human CEACAM4 is “no binding (tested: 10 mcg/ml)”. For the same molecule, in the assay with human CEACAM1, the binding result is on record as “no binding (tested: 10 mcg/ml)”. Besides, the binding result with human CEACAM3 is “no binding (tested: 10 mcg/ml)”. Also, in assay [1], the “EC50 fold change compared to no shed CEA condition, sCEA 0 µg/mL (reference)” value was 1 fold; the “EC50 fold change compared to no shed CEA condition, sCEA 0.2 µg/mL” value is 1.2 fold; the “EC50 fold change compared to no shed CEA condition, sCEA 1 µg/mL” value came to 2.4 fold; the “EC50 fold change compared to no shed CEA condition, sCEA 5 µg/mL” value turned out to be 7.3 fold.
